Paper PMC11889601, “The structural integrity of human TFF1 under reducing conditions” (Redox Biology, 2025)
Ends that are not written are not given here.

How the values were obtained:
[1] = monomer and homodimer TFF3 domains; reduced glutathione 10 equivalents, 100 μM, pH 7; ref [22]; cited from earlier work
Description: (§1) Many secretory proteins contain disulfide bonds, with most formed during folding in the endoplasmic reticulum. The trefoil factor family (TFF) is a highly relevant example of such secretory peptides in humans, with three characteristic peptides (TFF1, TFF2, TFF3) produced by mucous epithelia. They are most abundantly secreted throughout different compartments of the gastrointestinal tract, where they have important functions in protecting the epithelium barrier and maintaining mucosal epithelial homeostasis. Each member of the family has at least one highly conserved TF ...

[2] = test system: gastrointestinal proteases; details: ref [17]-[21]; cited from earlier work
Description: as §1

[3] = Reductive stability of disulfide bonds: TCEP reduction, IAM alkylation, LC-MS; type: physicochemical; details: chemical stability to reduction, 30 min, room temperature (25 °C), then IAM 100 eq/Cys 5 min, TFA quench; for Reduction and alkylation of disulfide bonds with 5 equivalents of TCEP: peptide 150 μM in 100 mM tris.HCl pH 7.4, 5 molar equivalents TCEP per peptide; for Reduction and alkylation of disulfide bonds with 15 equivalents of TCEP: peptide 150 μM in 100 mM tris.HCl pH 7.4, 15 molar equivalents TCEP per peptide; for Reduction and alkylation of disulfide bonds with 150 equivalents of TCEP: peptide 150 μM in 100 mM tris.HCl pH 7.4, 150 molar equivalents TCEP per peptide
Protocol: Peptides were purified by preparative RP-HPLC using a C5 column (Phenomenex Luna; 10 μm, 21.2 mm ID × 250 mm; flow rate 20 mL/min) on a Shimadzu LC-20A system running a linear gradient of solvents A (0.1 % TFA (aq) and B (90 % acetonitrile (aq)/0.1 % TFA). Fractions were analyzed by liquid chromatography-mass spectrometry (LC-MS), and those containing the desired peptide and >95 % purity were pooled and lyophilized. LC-MS analyses were performed on a C18 column (Agilent Eclipse Plus; […], 2.1 mm ID x 50 mm; flow rate 0.25 mL/min), using a QSTAR Elite electrospray ionization quadrupole time-of-flight (ESI QqTOF) mass spectrometer (SCIEX) linked to an upstream Shimadzu LC-20A HPLC system. HPLC solvents were the same as described previously, substituting formic acid for TFA. Peptides were separated on a gradient of 2–60 % B over 10 min and analyzed over a mass range of 200–2000 amu.
Peptides (TFF1, linaclotide, or BPTI) were dissolved to a concentration of 150 μM in 100 mM tris.HCl, pH 7.4. TCEP and IAM were prepared as separate 0.5 M solutions in 100 mM tris.HCl and the pH of all solutions were adjusted with concentrated KOH to pH 7.4. 25 μL of peptide (3.75 nmol) were treated with 0.5 M TCEP (0–150 molar equivalents per peptide). The samples were incubated at room temperature (25 °C) for 30 min, whereby they were treated with 5 μL (2.5 μmol; 100 eq/Cys) IAM for 5 min, followed by quenching with 5 μL TFA to reduce the pH to 2–3. Samples were then analyzed by LC-MS.

## TFF3: trefoil factor family secretory peptide 3, with TFF domain (EEYVGLSANQCAVPAKDRVDCGYPHVTPKECNNRGCCFDSRIPGVPWCFKPLQEAECTF; ends and bridges not checked; also: three intramolecular disulfides in TFF domain, pairing not given here; UniProt Q07654 22-80, looked up)
[1]
  Persistence of disulfide bonds in the presence of reduced glutathione: no disulfide bond reduction or scrambling detected
[2]
  Resistance of the TFF domain to gastrointestinal proteases: resistance

## bovine pancreatic trypsin inhibitor [BPTI]
[3]
  Reduction and alkylation of disulfide bonds with 5 equivalents of TCEP: complete reduction and alkylation of a single disulfide bond
  Reduction and alkylation of disulfide bonds with 15 equivalents of TCEP: no further reduction
  Reduction and alkylation of disulfide bonds with 150 equivalents of TCEP: No further reduction

## linaclotide
[3]
  Reduction and alkylation of disulfide bonds with 5 equivalents of TCEP: partial reduction and alkylation of a single disulfide bond
  Reduction and alkylation of disulfide bonds with 15 equivalents of TCEP: fully reduced and alkylated
  Reduction and alkylation of disulfide bonds with 150 equivalents of TCEP: fully reduced and alkylated

B1: TFF2: trefoil factor family secretory peptide 2 (protein, UniProt Q03403 24-129, looked up)
Trefoil factor 2: EKPSPCQCSRLSPHNRTNCGFPGITSDQCFDNGCCFDSSVTGVPWCFHPLPKQESDQCVMEVSDRRNCGYPGISPEECASRKCCFSNFIFEVPWCFFPKSVEDCHY
[2]
  Resistance of the TFF domain to gastrointestinal proteases: resistance
